Test results from patent US20140079722A1, “EXTRACELLULAR TARGETED DRUG CONJUGATES” (CENTROSE, LLC, priority 2011, published 2014).

Experiment: Single-dose tolerated dose (MTD), tail vein
Format: in vivo, BALB/c mice
Method: EDC M53-PEG24-CEN09-106 preparations with drug loading of 2, 5 or 9 drugs per antibody were administered to BALB/c mice (Harlan Laboratories, n=1) in a single dose of 25, 50, 100 and 200 mg/kg via the tail vein to determine single-dose MTDs. Mice were monitored daily for 24 days, and both weight and clinical observations were recorded (weight measured at least twice a week and evaluation for overt signs of toxicity conducted at least twice a day).

B1: M53-PEG24-CEN09-106: Class 1 EDC: antibody M53 conjugated to linker-ready agent PEG24-CEN09-106 (scillarenin, 4-amino-xyloside, PEG24) (conjugate)
heavy: EVQLVESGGGLVQPKGTLKLSCAASGFSFNTHAMNWVRQAPGKSLEWVARTMSKSNNYATYYADSVKDRFIIRADDSQSMLYLQMNNLKTEDTAMYYCVRDDPKRGMDYWGQGTSVTVSSAKTTPPSVYPLAPGSAAQTNSMVTLGCLVKGYFPEPVTVTWNSGSLSSGVHTFPAVLQSDLYTLSSSVTVPSSTWPSETVTCNVAHPASSTKVDKKIE
light: GIVMSQSPSSLAVSVGEKVTMSCKPSQSLLYSRNQKIYLAWYQQKPGQSPKLLIYWASTRESGVPDRFTGSGSGTDFTLIISSVRAEDLAVYYCQQYYNYPLTFGAGTKLELKRADAAPTVSIFPPSSEQLTSGGASVVCFLNNFYPKDINVKWKIDGSERQNGVLNSWTDQDSKDSTYSMSSTLTLTKDEYERHNSYTCEATHKTSTSPIVKSFNR
clinical observations (drug loading of 2, 200 mg/kg): limb weakness at day 1 but recovered by day 3 | loss in body weight (drug loading of 2, 200 mg/kg): 25% | MTD (drug loading of 2, single dose tail vein, BALB/c mice): > 100 mg/kg | clinical observations (drug loading of 5, 100 mg/kg): slight limpness and closed front limbs but recovered by day 3 | weight loss (drug loading of 5, 100 mg/kg): 27% | clinical observations (drug loading of 5, 200 mg/kg): limpness and closed front limbs and weakness at days 1 and 2 | clinical observations (drug loading of 5, 25 and 50 mg/kg): no signs of toxicity or weight loss | clinical observations (drug loading of 9, 25 mg/kg): no signs of toxicity or weight loss | clinical observations (drug loading of 9, 50 mg/kg): slight limpness on day 2 but recovered by day 3 | weight loss (drug loading of 9, 50 mg/kg, by day 5): 30% | clinical observations (drug loading of 9, 100 and 200 mg/kg): limpness, closed front limbs and weakness by day 1 which continued through day 2
